Measurements: patent US10344330B2, “Glatiramer acetate response biomarker mRNA potency assay” (Mylan Inc., priority 2013, dated 2019)

Experiments:
Type in all cases: cell-based, mouse
[1] = tested on: mIL-10 mRNA in primary LN cells; test: mIL-10 mRNA by real-time PCR in stimulated LN cells of immunized (SJL/J×BALB/C)F1 mice (Example I); conditions: GA 10, MBP 10, ConA 2.5 μg/mL, reference GAPDH
Method: Animals were immunized on Day 0.
Each mouse received a total injection volume of […] (250 μg GA). Animals were immunized on Day 0. […] Lymph nodes from immunized mice were removed and isolated.
(§1) Expression of cytokine mRNA was quantitatively analyzed 4 and 6 hours after using a Real-Time PCR system (7500, Applied Biosystems).

IL-5 mRNA in LN cells = test: IL-5 mRNA by real-time PCR in LN cells of GA-immunized CD-1, BALB/cByJ, SJL/J mice (Example III); conditions: stimulation 10 μg/mL, 6 hours
Method: On Day 0, mice were immunized with 250 μg GA (GMA, Mylan Pharmaceuticals, Inc.) and CFA. The GA solution (20 mg/mL) was diluted with Dulbecco's Phosphate-Buffered Saline to 5 mg/mL. The dosing formulation consisted of equal volumes of the diluted GA solution (5 mg/mL) and CFA solution, mixed until well-emulsified. Animals were weighed and allocated to groups. Animals were dosed by injection into four footpads. The injection volume per animal was 0.1 mL (about 10 μL into each front footpad, and 40 μL into each hind footpad).
Immunized animals were euthanized by cervical dislocation on Day 10 post-immunization. Lymph node cells were isolated from animals and treated with Myelin Basic Protein (MBP, a negative control), Concanavalin A (ConA, a positive control) or GA as shown in Table 16. Lymph nodes in the axillary and popliteal regions were removed aseptically in a purifier clean bench. […] The LN were then washed 3 times with −5 mL of RPMI medium, and isolated by pressing the LN with a syringe plunger. […] The cell suspension was centrifuged at about 200×g for 10 minutes at about 4° C. and re-suspended in ice cold enriched DCCM-1 medium. Cells were seeded in 96-well tissue culture plates.
LN cells isolated from GA-immunized animals were stimulated with GA (GMA, Mylan Pharmaceuticals, Inc.) at concentrations as indicated in Tables 16 and 17. A positive control was prepared by treating LN cells with 2.5 μg/mL concavalin A (ConA, a non-specific T cell stimulant). Myelin basic protein (MBP, 10 μg/mL) and enriched DCCM-1 medium served as negative controls. The cells from all groups each were stimulated with the same GA lot. Each reaction was set up in triplicate.
After incubation at about 37° C. in a humidified CO2 incubator for 6 hours, the cells were lysed for total RNA isolation. Total RNA was isolated from treated LN cells using SV 96 Total RNA Isolation System according to the manufacturer's protocol (Promega, Cat. #Z3500). Cells were washed once with Phosphate Buffered Saline (PBS) and lysed in RNA lysis buffer. The lysate was transferred to wells of the SV 96 binding plate. Samples were washed with RNA wash solution and treated with DNase. Total RNA was eluted with nuclease-free water from the binding plate.
After the reverse transcriptase reaction was completed, cDNA samples were used directly for real-time PCR to measure the response biomarker mRNA levels produced by the stimulated cells. […] All probes for target genes contained FAM dye, and probes for the internal control contained VIC®/MGB dye. Samples will be prepared and run in 96-well plates using a Real-Time PCR system (7500, Life Technologies). This system allows direct detection of PCR-product formation by measuring the increase in fluorescent emission continuously during the PCR reaction. A relative quantitation method was used to analyze changes in mouse IL-2, IL-4, IL-5, IL-10, IL-13, IFN-γ and TNF-α expression in GA-treated samples relative to the untreated control (enriched DCCM-1 treated) samples. The Real-Time PCR program was:
The levels of mouse cytokine amplicons (IL-2, IL-4, IL-5, IL-10, IL-13, mIFN-γ and TNF-α) were normalized to internal probe levels (GAPDH) from the same samples. The following equations were used to calculate the relative increase in response to GA stimulation compared to the control sample: ΔCT=CT_target−CT_reference ΔΔCT=−ΔCT_Treated−CT_VC

[2] = tested on: mIL-4 mRNA in primary LN cells; test: mIL-4 mRNA by real-time PCR in stimulated LN cells of immunized (SJL/J×BALB/C)F1 mice (Example I); conditions: GA 10, MBP 10, ConA 2.5 μg/mL; for mIL-4 mRNA Level: Experiment 1, GA-immunized (SJL/J×BALB/C)F1; for mIL-4 mRNA: reference 18S rRNA
Method: For each of the three experiments summarized in Table 1, female (SJL/J×BALB/C) F1 hybrid (Jackson Laboratory) mice were immunized by footpad injection with either 250 μg GMA (Mylan Pharmaceuticals, Inc.) and CFA (Sigma Aldrich), or Mannitol and CFA (as a negative control). The GA solution was diluted to 5 mg/mL with Dulbecco's Phosphate-buffered saline. A dose solution was then prepared by mixing the diluted GA solution (5 mg/mL) and CFA (1:1) until well-emulsified. Each mouse received a total injection volume of 0.1 mL (250 μg GA). Animals were immunized on Day 0. Immunized animals were sacrificed via cervical dislocation on Day 10 following immunization. […] The LN were washed 3 times with −5 mL of RPMI medium, and the LN cells isolated by pressing the LN with a syringe plunger. […] The cell suspension was centrifuged at about 200×g for 10 minutes at about 4° C. and re-suspended in ice cold enriched DCCM-1 medium. The LN cells (2.5×10^6 cells/cm^2) were plated in the wells of a 48-well tissue culture plate and stimulated with GA or controls.
Expression of cytokine mRNA was quantitatively analyzed using a Real-Time PCR system (7500, Applied Biosystems).
(DCCM1 from Beit Haemek Ltd.; Cat. No. 05 010 1A). There was no MBP treatment for the 2-hour groups.
Group 1B animals were female (SJL/J×BALB/C) F1 hybrid (Jackson Laboratory) mice immunized by footpad injection with either 250 μg GA and CFA, or Mannitol and CFA (as a negative control). A dose solution was prepared by mixing a diluted GA solution (5 mg/mL) and CFA (1:1). Each mouse received a total injection volume of […] (250 μg GA). Animals were immunized on Day 0. Immunized animals were sacrificed via cervical dislocation on Day 10 following immunization. Lymph nodes from immunized mice were removed and isolated. LN cells (2.5×10^6 cells/cm^2) were plated in the wells of a 48-well tissue culture plate for stimulation with GA.
as §1

[3] = tested on: IL-1b secreted by LN cells; test: IL-1b secretion by GA-stimulated LN cells, MSD 9-plex ELISA (Example II); conditions: 21 hr
[4] = Group 1B (GA + CFA), 4 hours post-stimulation
[5] = Group 1B (GA + CFA), 6 hours post-stimulation
[6] = Group 2B (Mannitol + CFA), 4 hours post-stimulation
[7] = Group 2B (Mannitol + CFA), 6 hours post-stimulation

B1: MBP: myelin basic protein, a negative control (protein, UniProt P02686 1-304, looked up)
Myelin basic protein: MGNHAGKRELNAEKASTNSETNRGESEKKRNLGELSRTTSEDNEVFGEADANQNNGTSSQDTAVTDSKRTADPKNAWQDAHPADPGSRPHLIRLFSRDAPGREDNTFKDRPSESDELQTIQEDSAATSESLDVMASQKRPSQRHGSKYLATASTMDHARHGFLPRHRDTGILDSIGRFFGGDRGAPKRGSGKDSHHPARTAHYGSLPQKSHGRTQDENPVVHFFKNIVTPRTPPPSQGKGRGLSLSRFSWGAEGQRPGFGYGGRASDYKSAHKGFKGVDAQGTLSKIFKLGGRDSRSGSPMARR
mIL-10 mRNA [1, 4]: 1.0 fold change vs control | mIL-10 mRNA [1, 5]: 0.6 fold change vs control | mIL-10 mRNA [1, 6]: 1.0 fold change vs control | mIL-10 mRNA [1, 7]: 0.5 fold change vs control | IL-5 mRNA Expression (IL-5 mRNA in LN cells; Group 1C: CD-1, GA-immunized): 0.8 fold change vs control | IL-5 mRNA Expression (IL-5 mRNA in LN cells; Group 2C: BALB/cByJ, GA-immunized): 0.2 fold change vs control | IL-5 mRNA Expression (IL-5 mRNA in LN cells; Group 3C: SJL/J, GA-immunized): 0.8 fold change vs control | mIL-4 mRNA Level ([2]; 4 hour post stimulation): 0.8 fold change vs control | mIL-4 mRNA Level ([2]; 6 hour post stimulation): 0.6 fold change vs control | mIL-4 mRNA Level ([2]; 24 hour post stimulation): 1.1 fold change vs control | mIL-4 mRNA [2, 4]: 0.5 fold change vs control | mIL-4 mRNA [2, 5]: 0.3 fold change vs control | mIL-4 mRNA [2, 6]: 1.4 fold change vs control | mIL-4 mRNA [2, 7]: 0.8 fold change vs control | IL-1b secretion response ratio (treated cell medium to control DCCM1 medium) ([3]; BALB/cByJ, immunized GA Intraplantar): 1.15 | IL-1b secretion response ratio (treated cell medium to control DCCM1 medium) ([3]; BALB/cByJ, immunized GA Lower Limb): 0.96 | IL-1b secretion response ratio (treated cell medium to control DCCM1 medium) ([3]; C57BL10J, immunized GA Lower Limb): 1.17 | IL-1b secretion response ratio (treated cell medium to control DCCM1 medium) ([3]; CD-1, immunized GA Lower Limb): 1.00
